Changes are numbered by the printed parent chain. Each block holds one binder with its values, some of them ahead of it.
Experiments:
[1] = target: T1, BSA (Bos taurus, UniProt P02769); assay: ELISA, BSA as background
T1 construct: The sheet prints only 'BSA'; also called bovine serum albumin; BSA background

[2] = target: T2, human ENO1 protein (human, UniProt P06733 1-434); assay: ENO1 binding ELISA
T2 construct: Purified human ENO1 protein coated on ELISA plates or injected as SPR analyte; also called alpha-enolase; enolase-1

[3] = target: T2, human ENO1 protein; assay: SPR, BIAcore 2000, antibody on the chip, ENO1 0.3125 nM to 40 nM as analyte, 25 degree C
Description: (§1) To know the binding kinetics difference among individual antibodies, surface plasmon resonance (SPR) measurement with a BIAcore 2000 (BIAcore. Inc., Piscataway, N.J.) was used as previously described (Karlsson & Falt, (1997) J. Immunol Methods 200:121-133). Carboxymethylated dextran biosensor chips (CM5, BIAcore Inc.) were activated with N-ethyl-N′-(3-dimethylaminopropyl)-carbodiimide hydrochloride (EDC) and N-hydroxysu-ccinimide (NHS) according to the supplier's instructions. Chimera EN10 mAb was diluted with 10 mM sodium acetate, pH 4.8, into 5 microgram/ml before injection at a flow rate of 20 micro L/minute to achieve approximately 100 response units (RU) of coupled protein followed by the injection of 1M ethanolamine to block unreacted groups. For kinetics measurements, two-fold serial dilutions of ENO1 (0.3125 nM to 40 nM) were injected in HBS-P Biacore running buffer provided by the manufacturer (BIAcore, Inc., Piscataway, N.J.) at 25 degree C. at a flow rate of 25 microL/min. and binding responses on the EN10 mAb were corrected by subtraction of responses on a blank flow cell. Association rates (kon or ka) and dissociation rates (koff or kd) were calculated using a simple one-to-one Langmuir binding model with separate fittings of kon and koff was used. (BIAcore™ Evaluation Software version 3.2).

[4] = target: T2, human ENO1 protein; assay: told with the SPR results of FIG. 7B
Description: as §1

[5] = target: T2, human ENO1 protein; assay: ELISA, human ENO1 coated on the plate; upper plateau of the four parameter logistic fit
Method: (§2) To determine the binding activity of each mutant antibody, 400 ng/100 μL of human ENO1 protein was coated on a 96-well ELISA overnight at 4° C. and the plate further was washed by PBS. The plate was blocked with 1% BSA (w/v) in PBS at room temperature for 1 hour, then washed again with 1×PBS. EN10.4, EN10.5, and humEN10 mAb antibodies were 2-fold serial diluted to 15 different concentrations and added to the plate at 37° C. for 1 hour. After the reaction was complete, the plate was washed 3 times with 1×PBS. A 1/8000 dilution of goat anti-human-HRP antibody was added and incubated at 37° C. for 1 hour, and then the plate washed 3 times with 1×PBS. The TMB substrate was added and reacted at room temperature for 30 minutes. The reaction was stopped by adding 1N HCl, and OD 450 was read to determine the activity. Every study was repeated three times. Data are presented as mean±SD. OD readings and concentrations of antibody were used to make a multiple scatter figure by Sigmaplot. The KD values were predicted by four parameter logistic fit.
(§3) There is no significant affinity difference among three different editions of hum EN10 mAb antibodies. […] Due to the structure similarity between cysteine and serine, EN10.5 is chosen to generate antibody production cell lines.

[6] = target: T2, human ENO1 protein; assay: ELISA, 400 ng/100 µL human ENO1 coated, antibody in 15 two-fold dilutions, four parameter logistic fit
Method: as §2, §3

[7] = target: T3, ENO1 mutant R327 to alanine (human, UniProt P06733 1-434); assay: ELISA, ENO1 mutant A327 coated, EN10.5 mAb titrated
T3 construct: Expressed in E. coli and purified on Ni-agarose
Method: (§4) To determine the binding activity of each mutant protein, 400 ng/100 μL of human ENO1 protein or mutated ENO1 protein was coated on a 96-well ELISA plate and incubated overnight at 4° C. and the plate was washed with PBS. The plate was blocked with 1% BSA (w/v) in PBS at room temperature for 1 hour, then washed again with 1×PBS. A primary antibody (EN10.5 mAb) was 2-fold serial diluted to 15 different concentrations and added to the plate at 37° C. for 1 hour. After the reaction was done, the plate was washed 3 times with 1×PBS. A 1/8000 dilution of goat anti-mouse-HRP antibody was added and incubated at 37° C. for 1 hour, then the plate was washed 3 times with 1×PBS. Then, TMB substrate was added and the reaction was allowed to proceed at room temperature for 30 minutes. The reaction was stopped by adding 1N HCl and OD450 was read to determine the activity. Each study was repeated three times. Data are presented as mean±SD. OD readings and concentrations of antibody were used to make a multiple scatter plot using Sigmaplot™. The KD values were predicted by four parameter logistic fit.
(§5) Thus, the crystal structure of ENO1 was downloaded from protein data bank (pdb-entry: 2PSN) to analyze residue positions from this region. […] Every purified ENO1 mutant protein was analyzed for any KD changes by ENO1 binding in ELISA. […]

[8] = target: T4, ENO1 mutant S310 to alanine (human, UniProt P06733 1-434); assay: ELISA, ENO1 mutant A310 coated, EN10.5 mAb titrated, four parameter logistic fit
T4 construct: Expressed in E. coli and purified on Ni-agarose
Method: as §4, §5

[9] = target: T5, ENO1 mutant Q298 to alanine (human, UniProt P06733 1-434); assay: ELISA, ENO1 mutant A298 coated, EN10.5 mAb titrated, four parameter logistic fit
T5 construct: Expressed in E. coli and purified on Ni-agarose
Method: as §4, §5

[10] = target: T6, A333 (human); assay: ELISA, ENO1 mutant A333 coated, EN10.5 mAb titrated, four parameter logistic fit
T6 construct: Sixth mutant of the alanine scan; It is named only on the sheets; the text lists five mutants
Method: as §4, §5

[11] = target: T7, ENO1 mutant G312 to alanine (human, UniProt P06733 1-434); assay: ELISA, ENO1 mutant A312 coated, EN10.5 mAb titrated, four parameter logistic fit
T7 construct: Expressed in E. coli and purified on Ni-agarose
Method: as §4, §5

[12] = target: T8, ENO1 mutant D299 to alanine (human, UniProt P06733 1-434); assay: ELISA, ENO1 mutant A299 coated, EN10.5 mAb titrated, four parameter logistic fit
T8 construct: Expressed in E. coli and purified on Ni-agarose
Method: as §4, §5

T2 sequence (P06733 whole entry): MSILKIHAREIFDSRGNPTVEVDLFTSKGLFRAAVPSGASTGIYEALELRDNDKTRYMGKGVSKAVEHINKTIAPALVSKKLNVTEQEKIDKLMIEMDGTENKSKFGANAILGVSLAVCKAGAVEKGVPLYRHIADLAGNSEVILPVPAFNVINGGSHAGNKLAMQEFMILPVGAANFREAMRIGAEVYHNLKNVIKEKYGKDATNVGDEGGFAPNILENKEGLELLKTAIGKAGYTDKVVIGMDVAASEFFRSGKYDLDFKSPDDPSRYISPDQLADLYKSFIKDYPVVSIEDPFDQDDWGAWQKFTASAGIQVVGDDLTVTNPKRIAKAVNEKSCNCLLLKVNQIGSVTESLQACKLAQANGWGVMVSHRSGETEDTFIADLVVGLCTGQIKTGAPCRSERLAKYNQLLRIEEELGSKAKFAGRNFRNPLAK
T1 sequence (P02769 25-607 limits assumed): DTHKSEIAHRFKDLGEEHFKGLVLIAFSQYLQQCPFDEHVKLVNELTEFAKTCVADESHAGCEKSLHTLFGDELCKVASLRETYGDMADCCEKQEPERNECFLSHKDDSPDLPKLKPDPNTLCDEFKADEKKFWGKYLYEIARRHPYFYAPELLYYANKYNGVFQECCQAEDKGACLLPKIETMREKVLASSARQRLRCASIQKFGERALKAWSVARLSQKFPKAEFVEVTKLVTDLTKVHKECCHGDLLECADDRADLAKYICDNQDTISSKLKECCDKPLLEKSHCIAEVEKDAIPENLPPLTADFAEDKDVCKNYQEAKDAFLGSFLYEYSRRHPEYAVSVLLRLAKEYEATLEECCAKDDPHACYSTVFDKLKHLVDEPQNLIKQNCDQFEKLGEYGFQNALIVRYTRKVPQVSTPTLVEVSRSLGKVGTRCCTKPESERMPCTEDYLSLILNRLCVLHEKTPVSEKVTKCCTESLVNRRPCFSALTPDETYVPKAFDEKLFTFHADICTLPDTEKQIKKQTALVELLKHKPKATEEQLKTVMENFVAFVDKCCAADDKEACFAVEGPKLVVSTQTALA
T3 sequence (P06733 other isoform, or with tags, fused parts or gaps mutant limits assumed): as the sequence (P06733 whole entry) above, with R327A counted along it
T4 sequence (P06733 other isoform, or with tags, fused parts or gaps mutant limits assumed): as the sequence (P06733 whole entry) above, with S310A counted along it
T8 sequence (P06733 other isoform, or with tags, fused parts or gaps mutant limits assumed): as the sequence (P06733 whole entry) above, with D299A counted along it
T5 sequence (P06733 other isoform, or with tags, fused parts or gaps mutant limits assumed): as the sequence (P06733 whole entry) above, with Q298A counted along it
T7 sequence (P06733 other isoform, or with tags, fused parts or gaps mutant limits assumed): as the sequence (P06733 whole entry) above, with G312A counted along it

binding result [1]: no binding
B1: EN10 mAb (antibody, V domains shown)
VH: EVQLQQSGPELVKPGASVKMSCKASGYTFTSCVMNWVKQKPGQGLEWIGYINPYNDGTKYNEKFKGKATLTSDKSSSTAYMELSSLTSEDSAVYYCAREGFYYGNFDNWGQGTTLTVSS
VL: DIQMTQSPASLSASVGETVTITCRASENIYSYLTWYQQKQGKSPQLLVYNAKTLPEGVPSRFSGSGSGTQFSLKINSLQPEDFGSYYCQHHYGTPYTFGGGTKLEITR
notes: Mouse monoclonal antibody purified from hybridoma ascites; also called anti-human ENO1 antibody EN10 mAb; EN10 mAb antibody

binding result [7]: no binding (tested: about 1e-7 M)
Kd [8]: 0.217 nM
Kd [9]: 0.238 nM
Kd [10]: 0.21 nM
Kd [11]: 0.2 nM
Max. [5]: 2.97 O.D 450 nm
Kd [6]: 0.157 nM
Kd [12]: 64.3 nM
B5: EN10.5 (antibody, V domains shown)
VH: QVQLVQSGAEVKKPGASVKVSCKASGYTFTSSVMNWVRQAPGQGLEWMGYINPYNDGTKYNEKFKGRVTMTTDTSTSTAYMELRSLRSDDTAVYYCAREGFYYGNFDNWGQGTLVTVSS
VL: DIQMTQSPSSLSASVGDRVTITCRASENIYSYLTWYQQKPGKAPKLLIYNAKTLPEGVPSRFSGSGSGTDFTLTISSLQPEDFATYYCQHHYGTPYTFGQGTKLEIKR
notes: same light chain as humEN10 mAb; human IgG; also called EN10.5 mAb; mAb EN10.5

Second part, the binder before the results:

B2: hum EN10 mAb IMGT (antibody, V domains shown)
VH: B5 VH with S32C
VL: B5 VL
notes: Humanized antibody, human IgG; also called Hum EN10 IMGT; hum ENO10mAb IMGT
Kd [2]: 0.0365 nM
Kd [3]: 0.219 nM
Kd [4]: ~0.203 nM
Max. [5]: 2.99 O.D 450 nm
Kd [6]: 0.163 nM

B3: hum EN10 mAb 4D5 (antibody, V domains shown)
VH: EVQLVESGGGLVQPGGSLRLSCAASGYTFTSCVMNWVRQAPGKGLEWVAYINPYNDGTKYNEKFKGRFTISRDDSKNTLYLQMNSLRAEDTAVYYCAREGFYYGNFDNWGQGTLVTVSS
VL: B5 VL
notes: Humanized antibody, human IgG; also called hum ENO10mAb 4D5; hum EN10 mAb 45D
Kd [3]: 0.5 nM

B4: EN10.4 (antibody, V domains shown)
VH: B5 VH with S32A
VL: B5 VL
notes: same light chain as humEN10 mAb; human IgG from FreeStyle293 cells; also called EN10.4 mAb; alanine mutant of humEN10 mAb antibody
Max. [5]: 2.94 O.D 450 nm
Kd [6]: 0.14 nM

— patent US20190322762A1 (DEVELOPMENT CENTER FOR BIOTECHNOLOGY, published 2019)
